From paper PMC11227718

What was measured:
[1] = cycloheximide chase, immunoblot
[2] = immunoblot of endogenous CCDC88C, BT549; conditions: glycan gained; control: empty vector
[3] = immunoblot of endogenous CCDC88C; conditions: glycan lost; control: negative control siRNA

Row | Substance | degradation_or_half_life ([1]; glycan gained, control: empty vector) | expression_or_secretion [2] | degradation_or_half_life ([1]; glycan lost, control: negative control siRNA) | expression_or_secretion [3]
1 | Coiled-coil domain containing 88C (CCDC88C, Daple): GALNT6 overexpression | increases | increases | – | –
2 | Coiled-coil domain containing 88C (CCDC88C, Daple): si-GALNT6 | – | – | decreases | decreases
